Molecular target: T1, 重组人Trop-2蛋白 (human, UniProt P09758 27-274, limits assumed)
T1 construct: Purified recombinant protein coated on ELISA plates; also called recombinant human Trop-2 protein; 重组的Trop-2蛋白
T1 sequence (looked up): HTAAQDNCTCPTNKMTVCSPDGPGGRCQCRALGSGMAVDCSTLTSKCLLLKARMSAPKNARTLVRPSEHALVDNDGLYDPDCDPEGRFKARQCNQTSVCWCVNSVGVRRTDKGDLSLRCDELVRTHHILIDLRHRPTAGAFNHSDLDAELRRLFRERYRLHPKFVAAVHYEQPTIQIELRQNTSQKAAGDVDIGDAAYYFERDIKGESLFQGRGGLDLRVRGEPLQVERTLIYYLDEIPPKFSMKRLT
Test: phage ELISA of single clones after five rounds of panning on recombinant human Trop-2

- binding result: binds
B1: 抗Trop-2的特异性人源Fab抗体 (Fab, V domains shown)
VH: QVQLVESGGGVVQPGRSLRLSCAASGFTFSSYGMHWVRQAPGKGLEWVAVIWYDGSNKYYADSVKGRFTISRDNSKNTLYLQMNSLRAEDTAVYYCARDPGWGFDYWGQGTLVTVSS
VL: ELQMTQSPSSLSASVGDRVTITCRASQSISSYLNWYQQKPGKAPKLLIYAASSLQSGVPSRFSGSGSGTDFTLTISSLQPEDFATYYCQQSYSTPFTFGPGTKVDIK
notes: also called 抗Trop-2抗体Fab; pComb3x-Fab

From patent CN102827282A (LIN HONG, dated 2012)
